For 167 variants, abundance fitness results are on record in the Human Domainome abundance scans (Beltran et al. 2025).

Sequences and labels used below:
B1: POU domain, class 4, transcription factor 3, residues 185 to 256; numbered along this chain, Q15319 (parent)
chain: RELEAFAERFKQRRIKLGVTQADVGAALANLKIPGVGSLSQSTICRFESLTLSHNNMIALKPVLQAWLEEAE

± gives the uncertainty stated by the source.

Variants of B1 are the subject of this data set. Briefly: abundance fitness (aPCA) (normalised: wild type 0, dead -1); higher = more abundant; growth selection in yeast, the domain comes from the species named. The conditions noted are these: Homo sapiens.
Turning to T43D, the abundance fitness was -0.29 ± 0.24.

For T43F, the abundance fitness is -0.425 ± 0.17. D23M: the abundance fitness was -0.135 ± 0.11. K61I: the abundance fitness is -0.128 ± 0.069. On to K61N, for which the abundance fitness was -0.658 ± 0.092. K61P: the abundance fitness was -1.12 ± 0.18. Under V24I stands -0.123 ± 0.051; under V24D, -0.675 ± 0.2; under V24P, -0.842 ± 0.044.

Turning to V24A, the abundance fitness was -0.142 ± 0.052. In the case of A22I it was -0.5 ± 0.053. Consider A22M, for which the abundance fitness was -0.179 ± 0.1.

Consider N30Q, for which the abundance fitness was -0.022 ± 0.099. In the case of N30V it was -0.177 ± 0.046; in that of N30H, -0.051 ± 0.16; in that of N30T, -0.005 ± 0.11. Turning to N30R, the abundance fitness is -0.148 ± 0.078.

For N30W, the abundance fitness was found to be 0.007 ± 0.19. For N30I, the abundance fitness was -0.361 ± 0.15. Consider F10R, for which the abundance fitness is -0.653 ± 0.33. Under F10W stands -0.287 ± 0.09; under F10M, -0.881 ± 0.3; under L39S, -0.109 ± 0.23. In the case of I15C, the abundance fitness was -0.223 ± 0.1. Take I15P: the abundance fitness was -0.915 ± 0.36. Under I15G stands -0.423 ± 0.14; under L64F, -0.412 ± 0.06.

Turning to L64S, the abundance fitness is -0.768 ± 0.076. In the case of E72Q it was -0.263 ± 0.042.

On to E72S, for which the abundance fitness is -0.153 ± 0.028. Take E72W: the abundance fitness is -0.325 ± 0.037.

For the variant E72V, the abundance fitness was -0.265 ± 0.025. For E72K, the abundance fitness is -0.384 ± 0.052.

With V19S, the abundance fitness was -0.14 ± 0.029. V19K: the abundance fitness was found to be 0.078 ± 0.029. On to V19L, for which the abundance fitness worked out at 0.011 ± 0.03. Take L17M: the abundance fitness is -0.099 ± 0.16. For the variant L17F, the abundance fitness was -0.405 ± 0.12.

As to L17K, the abundance fitness was -0.466 ± 0.19. As to L17Y, the abundance fitness was -0.448 ± 0.14. As to P34W, the abundance fitness is -0.571 ± 0.36. For P34K, the abundance fitness is -0.433 ± 0.33. Under A7E stands -0.893 ± 0.082; under A7F, -0.649 ± 0.1. In the case of A5Q, the abundance fitness was 0.08 ± 0.15.

A71K: the abundance fitness was 0.002 ± 0.027. Under A71F stands -0.139 ± 0.034; under A71T, -0.085 ± 0.062; under A29V, -0.2 ± 0.072. On to A29Y, for which the abundance fitness is -0.305 ± 0.082. Take A29Q: the abundance fitness was 0.123 ± 0.11. R14C: the abundance fitness was -0.887 ± 0.13. In the case of R14E it was -0.95 ± 0.34; in that of R14G, -0.951 ± 0.13.

With S53K, the abundance fitness was -0.222 ± 0.093.

Turning to S53R, the abundance fitness is -0.229 ± 0.054. In the case of S53P it was 0.042 ± 0.09. For F47W, the abundance fitness was -0.508 ± 0.066. For the variant F47T, the abundance fitness is -0.94 ± 0.19.

For the variant F47M, the abundance fitness is -0.543 ± 0.09.

Regarding F47P, the abundance fitness was -1.02 ± 0.13. In the case of F47I, the abundance fitness was -0.836 ± 0.17. Take G37H: the abundance fitness came to 0.011 ± 0.26.

On to G37A, for which the abundance fitness is -0.127 ± 0.053. Take G25C: the abundance fitness is 0.143 ± 0.099. With G25E, the abundance fitness was -0.054 ± 0.17. Under G25N stands -0.963 ± 0.49.

In the case of N56F, the abundance fitness is -0.628 ± 0.078.

As to N56W, the abundance fitness came out at 0.101 ± 0.21. In the case of N56S, the abundance fitness was 0.089 ± 0.13.

For the variant N56D, the abundance fitness was -0.355 ± 0.41. W67Q: the abundance fitness is -1.02 ± 0.24.

Take Q21K: the abundance fitness is -0.285 ± 0.13. Under Q21E stands 0.081 ± 0.11. Turning to Q21H, the abundance fitness worked out at 0.294 ± 0.16. For T51V, the abundance fitness is -0.112 ± 0.073. Under T20S stands -0.095 ± 0.073; under A59G, -0.085 ± 0.18; under C45Y, -0.01 ± 0.059. In the case of C45N, the abundance fitness was -0.007 ± 0.094. In the case of E70K it was -0.03 ± 0.053. Consider E70L, for which the abundance fitness is -0.323 ± 0.029.

With E70N, the abundance fitness was 0.114 ± 0.056. As for S38N, the abundance fitness is 0.022 ± 0.021. For the variant I58E, the abundance fitness came to 0.071 ± 0.34.

As to I58N, the abundance fitness was -0.049 ± 0.05.

L50S: the abundance fitness was 0.041 ± 0.22.

For L50R, the abundance fitness amounted to 0.053 ± 0.03. For Q65R, the abundance fitness is -0.252 ± 0.16.

Take Q65S: the abundance fitness was -0.127 ± 0.3.

For the variant Q65L, the abundance fitness is -0.486 ± 0.17. For A66V, the abundance fitness is -0.429 ± 0.2. With S40Y, the abundance fitness was -0.422 ± 0.079.

With S40A, the abundance fitness was -0.222 ± 0.07. Take S40L: the abundance fitness is -0.488 ± 0.082. On to S40P, for which the abundance fitness was -0.154 ± 0.064. Under S40H stands -0.013 ± 0.22.

For R1E, the abundance fitness was -0.093 ± 0.1. On to L68R, for which the abundance fitness is -0.96 ± 0.068. Take L68Y: the abundance fitness was -0.287 ± 0.052.

Take L68P: the abundance fitness was -1.06 ± 0.14. As for L68D, the abundance fitness was -0.872 ± 0.078. Consider A26P, for which the abundance fitness is -0.472 ± 0.053.

As to A26D, the abundance fitness was -0.01 ± 0.052. With A26Q, the abundance fitness was -0.029 ± 0.045. As to Q12G, the abundance fitness was -0.377 ± 0.2.

Regarding Q12Y, the abundance fitness turned out to be 0.121 ± 0.24. As for K11P, the abundance fitness is -0.751 ± 0.37. Turning to K11V, the abundance fitness was -0.186 ± 0.12. For K11T, the abundance fitness is -0.276 ± 0.097. On to G18A, for which the abundance fitness was -0.43 ± 0.12. Regarding G18V, the abundance fitness was -0.997 ± 0.15. For G18C, the abundance fitness is -0.572 ± 0.097. As for G18K, the abundance fitness is -0.296 ± 0.15. Take R13W: the abundance fitness was -0.297 ± 0.039. For the variant R13V, the abundance fitness was -0.018 ± 0.033. For the variant R13M, the abundance fitness was -0.094 ± 0.062. Turning to R13Q, the abundance fitness was -0.069 ± 0.18. Take L28N: the abundance fitness was -0.623 ± 0.12. Turning to L28K, the abundance fitness was -0.915 ± 0.19. L28E: the abundance fitness was -0.985 ± 0.27. For L28V, the abundance fitness is -0.126 ± 0.079. For L28Y, the abundance fitness was -0.49 ± 0.23. In the case of G35M, the abundance fitness is -0.099 ± 0.087. Turning to G35Q, the abundance fitness is -0.076 ± 0.048. For G35N, the abundance fitness is -0.121 ± 0.052. Under P62L stands -0.53 ± 0.028; under E2P, -0.345 ± 0.13. For the variant R46E, the abundance fitness stood at 0.025 ± 0.17. In the case of K32L it was -0.146 ± 0.03; in that of K32N, 0.004 ± 0.047; in that of K32E, 0.034 ± 0.067. K32V: the abundance fitness is -0.009 ± 0.031. Regarding K32I, the abundance fitness is -0.049 ± 0.045. Under K32H stands -0.113 ± 0.068.

M57Q: the abundance fitness was -0.359 ± 0.12. Take V63F: the abundance fitness is -0.181 ± 0.15. Under I33K stands -0.391 ± 0.11; under E8A, 0.022 ± 0.081; under E8Q, 0.073 ± 0.091. With E8C, the abundance fitness is -0.212 ± 0.071.

Regarding E8F, the abundance fitness is -0.005 ± 0.12.

Take L31N: the abundance fitness is -0.565 ± 0.3. Consider L31W, for which the abundance fitness was -0.008 ± 0.2. Turning to E69F, the abundance fitness was -0.2 ± 0.06.

In the case of E69L, the abundance fitness was -0.097 ± 0.027. For the variant E69R, the abundance fitness was -0.065 ± 0.033. Take E69C: the abundance fitness was found to be 0.006 ± 0.073.

With R9W, the abundance fitness was -0.146 ± 0.1.

Take R9P: the abundance fitness is -0.642 ± 0.48. On to R9H, for which the abundance fitness was -0.018 ± 0.1.

Turning to L3Y, the abundance fitness was -0.192 ± 0.1.

For the variant V36S, the abundance fitness was -0.077 ± 0.059.

For K16G, the abundance fitness is -0.129 ± 0.042. In the case of K16R it was -0.01 ± 0.027; in that of K16A, 0.055 ± 0.039. On to K16P, for which the abundance fitness is -0.968 ± 0.049.

K16E: the abundance fitness stood at 0.077 ± 0.067. In the case of K16T, the abundance fitness was -0.063 ± 0.033. On to S49V, for which the abundance fitness is -0.718 ± 0.11.

Consider A27L, for which the abundance fitness was -0.233 ± 0.064. Regarding A27G, the abundance fitness was -0.196 ± 0.046. Consider A27F, for which the abundance fitness was -0.283 ± 0.11. Take E4I: the abundance fitness was found to be 0.113 ± 0.077. Regarding E4F, the abundance fitness was 0.03 ± 0.055.

As for E4K, the abundance fitness was -0.125 ± 0.11. For the variant E4W, the abundance fitness was -0.222 ± 0.043.
